The values below come from patent publication US6750046.

This test addresses thrombin. As to the kind of experiment: cell-based or functional assay. As to conditions: for Antithrombin Units per mg Oil Body Proteins: scale: antithrombin units per mg oil body protein; for Thrombin Units Per Assay: scale: thrombin units per assay.

“hirudin released from the oleosin/hirudin fusion by Factor Xa” had an Antithrombin Units per mg Oil Body Proteins of 0.55 and a Thrombin Units Per Assay of 0.0065.

B1: Arabidopsis oleosin/hirudin fusion (protein, part only; not given: Factor Xa cleavage junction, Hirudo medicinalis, not shown: small tags and cut ends)
chain, part: MADTARGTHHDIIGRDQYPMMGRDRDQYQMSGRGSDYSKSRQIAKAATAVTAGGSLLVLSSLTLVGTVIALTVATPLLVIFSPILVPALITVALLITGFLSSGGFGIAAITVFSWIYKYATGEHPQGSDKLDSARMKLGSKAQDLKDRAQYYGQQHTGGEHDRDRTRGGQHTT
Turning to B1, the Antithrombin Units per mg Oil Body Proteins was less than 0.001 and the Thrombin Units Per Assay was 0.14.
